Test results from US11872270B2, “A*03 restricted peptides for use in immunotherapy against cancers and related methods” (Immatics Biotechnologies GmbH, priority 2018, dated 2024).

Biological target: HLA-A*03:01 (Homo sapiens, UniProt P04439)
Test: MHC binding assay (UV-ligand exchange, β2m ELISA)
Conditions: binding to HLA-A*03:01, UV-ligand exchange, β2m ELISA
Excerpt: Candidate peptides for T cell based therapies according to the present invention were further tested for their MHC binding capacity (affinity). The individual peptide-MHC complexes were produced by UV-ligand exchange, where a UV-sensitive peptide is cleaved upon UV-irradiation and exchanged with the peptide of interest as analyzed. Only peptide candidates that can effectively bind and stabilize the peptide-receptive MHC molecules prevent dissociation of the MHC complexes. To determine the yield of the exchange reaction, an ELISA was performed based on the detection of the light chain (β2m) of stabilized MHC complexes. The assay was performed as generally described in Rodenko et al. (Rodenko et al., 2006) 96 well MAXISorp plates (NUNC) were coated over night with 2 ug/ml streptavidin in PBS at room temperature, washed 4× and blocked for 1 h at 37° C. in 2% BSA containing blocking buffer. Refolded HLA-A*02:01/MLA-001 monomers served as standards, covering the range of 15-500 ng/ml. Peptide-MHC monomers of the UV-exchange reaction were diluted 100-fold in blocking buffer. Samples were incubated for 1 h at 37° C., washed four times, incubated with 2 ug/ml HRP conjugated anti-β2m for 1 h at 37° C., washed again and detected with TMB solution that is stopped with […]. Absorption was measured at 450 nm. Candidate peptides that show a high exchange yield (preferably higher than 50%, most preferred higher than 75%) are generally preferred for a generation and production of antibodies or fragments thereof, and/or T cell receptors or fragments thereof, as they show sufficient avidity to the MHC molecules and prevent dissociation of the MHC complexes.

Question: Which “Peptide exchange (MHC class I binding score, peptide exchange yield)” value (from here on “Peptide exchange”) does the source give for “1 (RVYPHKTLY; listed as Homo sapiens) [compound 1]” here?
Answer: Its value is “+++ (>50 = +++)”.

Question: For “2 (KVMPKQTWK; listed as Homo sapiens) [compound 2]”, which “Peptide exchange” value is on record?
Answer: Its value is “+++ (>50 = +++)”.

Question: Which “Peptide exchange” value does the source give for “3 (LLYGNGPGYVLK; listed as Homo sapiens) [compound 3]” here?
Answer: Its value is “++++ (>75% = ++++)”.

Question: “6 (SIFGLAPGK; listed as Homo sapiens) [compound 6]” was tested. Which “Peptide exchange” value did it give?
Answer: Its value is “++++ (>75% = ++++)”.

Question: For “7 (RLVELAGQSLLK; listed as Homo sapiens) [compound 7]”, which “Peptide exchange” value is on record?
Answer: Its value is “++++ (>75% = ++++)”.

Question: Which “Peptide exchange” value does the source give for “9 (HVLYPVPLESY; listed as Homo sapiens) [compound 9]” here?
Answer: The value was “+++ (>50 = +++)”.

Question: “10 (KARDLRTPK; listed as Homo sapiens) [compound 10]” was tested. Which “Peptide exchange” value did it give?
Answer: The value was “+++ (>50 = +++)”.

Question: For “11 (PLPRPGAVLK; listed as Homo sapiens) [compound 11]”, which “Peptide exchange” value is on record?
Answer: The value was “++ (>20% = ++)”.

Question: How did the “Peptide exchange” value turn out when “12 (KVLTRNIEY; listed as Homo sapiens) [compound 12]” was run?
Answer: Its value is “+++ (>50 = +++)”.

Question: For “13 (AVAFFVLPSK; listed as Homo sapiens) [compound 13]”, which “Peptide exchange” value is on record?
Answer: Its value is “++++ (>75% = ++++)”.

Question: Which “Peptide exchange” value does the source give for “14 (VAFFVLPSK; listed as Homo sapiens) [compound 14]” here?
Answer: Its value is “++ (>20% = ++)”.

Question: “15 (RLYAPVVNISRL; listed as Homo sapiens) [compound 15]” was tested. Which “Peptide exchange” value did it give?
Answer: Its value is “+++ (>50 = +++)”.

Question: “16 (KVFAEHKISY; listed as Homo sapiens) [compound 16]” was tested. Which “Peptide exchange” value did it give?
Answer: The value was “+++ (>50 = +++)”.

Question: With “17 (GGLSSQGVYY; listed as Homo sapiens) [compound 17]” as the substance, how does the “Peptide exchange” value read?
Answer: The value was “++ (>20% = ++)”.

Question: How did the “Peptide exchange” value turn out when “18 (RLYYSFKNITK; listed as Homo sapiens) [compound 18]” was run?
Answer: The value was “++++ (>75% = ++++)”.

Question: “19 (ALAAKLEVK; listed as Homo sapiens) [compound 19]” was tested. Which “Peptide exchange” value did it give?
Answer: Its value is “++++ (>75% = ++++)”.

Question: Which “Peptide exchange” value does the source give for “20 (LLPTVLIKK; listed as Homo sapiens) [compound 20]” here?
Answer: Its value is “+++ (>50 = +++)”.

Question: Which “Peptide exchange” value does the source give for “21 (SSLAELIAK; listed as Homo sapiens) [compound 21]” here?
Answer: Its value is “++ (>20% = ++)”.

Question: “22 (EGLFLLGCVK; listed as Homo sapiens) [compound 22]” was tested. Which “Peptide exchange” value did it give?
Answer: Its value is “+++ (>50 = +++)”.

Question: “23 (RLSPGPRAY; listed as Homo sapiens) [compound 23]” was tested. Which “Peptide exchange” value did it give?
Answer: The value was “+++ (>50 = +++)”.

Question: How did the “Peptide exchange” value turn out when “24 (KLETGVVKK; listed as Homo sapiens) [compound 24]” was run?
Answer: Its value is “++++ (>75% = ++++)”.

Question: Which “Peptide exchange” value does the source give for “25 (KTWAHCMSY; listed as Homo sapiens) [compound 25]” here?
Answer: Its value is “++++ (>75% = ++++)”.

Question: With “26 (QLGYQAAVLK; listed as Homo sapiens) [compound 26]” as the substance, how does the “Peptide exchange” value read?
Answer: The value was “+++ (>50 = +++)”.

Question: With “27 (SGSTLECILYK; listed as Homo sapiens) [compound 27]” as the substance, how does the “Peptide exchange” value read?
Answer: The value was “++++ (>75% = ++++)”.

Question: How did the “Peptide exchange” value turn out when “28 (STLECILYK; listed as Homo sapiens) [compound 28]” was run?
Answer: Its value is “++++ (>75% = ++++)”.

Question: “30 (ILDSSLLK; listed as Homo sapiens) [compound 30]” was tested. Which “Peptide exchange” value did it give?
Answer: Its value is “++ (>20% = ++)”.

Question: For “31 (HAFFPKTHR; listed as Homo sapiens) [compound 31]”, which “Peptide exchange” value is on record?
Answer: The value was “++++ (>75% = ++++)”.

Question: For “32 (LLDAEPPILY; listed as Homo sapiens) [compound 32]”, which “Peptide exchange” value is on record?
Answer: The value was “+ (>10% = +)”.

Question: “34 (AIGTPLIGK; listed as Homo sapiens) [compound 34]” was tested. Which “Peptide exchange” value did it give?
Answer: Its value is “+++ (>50 = +++)”.

Question: With “35 (VLLLLSLLH; listed as Homo sapiens) [compound 35]” as the substance, how does the “Peptide exchange” value read?
Answer: Its value is “++ (>20% = ++)”.

Question: “36 (QIRAELMKK; listed as Homo sapiens) [compound 36]” was tested. Which “Peptide exchange” value did it give?
Answer: The value was “++++ (>75% = ++++)”.

Question: “37 (EVILTTKTPK; listed as Homo sapiens) [compound 37]” was tested. Which “Peptide exchange” value did it give?
Answer: The value was “++ (>20% = ++)”.

Question: Which “Peptide exchange” value does the source give for “38 (SLFPYYNNLY; listed as Homo sapiens) [compound 38]” here?
Answer: Its value is “+ (>10% = +)”.

Question: How did the “Peptide exchange” value turn out when “39 (KTQFPQLK; listed as Homo sapiens) [compound 39]” was run?
Answer: Its value is “++ (>20% = ++)”.

Question: Which “Peptide exchange” value does the source give for “40 (ALNDRFAGY; listed as Homo sapiens) [compound 40]” here?
Answer: Its value is “+++ (>50 = +++)”.

Question: With “41 (RLGAARGQLR; listed as Homo sapiens) [compound 41]” as the substance, how does the “Peptide exchange” value read?
Answer: Its value is “++ (>20% = ++)”.

Question: Which “Peptide exchange” value does the source give for “42 (RVCMTVDSLVNK; listed as Homo sapiens) [compound 42]” here?
Answer: The value was “++++ (>75% = ++++)”.

Question: With “43 (TVYDSIWCNMK; listed as Homo sapiens) [compound 43]” as the substance, how does the “Peptide exchange” value read?
Answer: Its value is “++++ (>75% = ++++)”.

Question: For “44 (HAFPPGPNY; listed as Homo sapiens) [compound 44]”, which “Peptide exchange” value is on record?
Answer: The value was “+ (>10% = +)”.

Question: With “47 (ALFGNALVFY; listed as Homo sapiens) [compound 47]” as the substance, how does the “Peptide exchange” value read?
Answer: The value was “++++ (>75% = ++++)”.

Question: How did the “Peptide exchange” value turn out when “48 (KGWNGQIFK; listed as Homo sapiens) [compound 48]” was run?
Answer: Its value is “+++ (>50 = +++)”.

Question: For “49 (ITAPLMPLGK; listed as Homo sapiens) [compound 49]”, which “Peptide exchange” value is on record?
Answer: The value was “++++ (>75% = ++++)”.

Question: How did the “Peptide exchange” value turn out when “50 (HSAGIFSMY; listed as Homo sapiens) [compound 50]” was run?
Answer: Its value is “++ (>20% = ++)”.

Question: “51 (VTADGALAMEK; listed as Homo sapiens) [compound 51]” was tested. Which “Peptide exchange” value did it give?
Answer: Its value is “+++ (>50 = +++)”.

Question: “53 (KQALSLVRK; listed as Homo sapiens) [compound 53]” was tested. Which “Peptide exchange” value did it give?
Answer: Its value is “+++ (>50 = +++)”.

Question: Which “Peptide exchange” value does the source give for “54 (GVTITKTLK; listed as Homo sapiens) [compound 54]” here?
Answer: The value was “+++ (>50 = +++)”.

Question: Which “Peptide exchange” value does the source give for “55 (RLSAESKDLLK; listed as Homo sapiens) [compound 55]” here?
Answer: The value was “+++ (>50 = +++)”.

Question: Which “Peptide exchange” value does the source give for “56 (TTYYPSPLNK; listed as Homo sapiens) [compound 56]” here?
Answer: Its value is “+++ (>50 = +++)”.

Question: “58 (VLYRPQLEK; listed as Homo sapiens) [compound 58]” was tested. Which “Peptide exchange” value did it give?
Answer: Its value is “++++ (>75% = ++++)”.

Question: With “59 (KINQYIIKK; listed as Homo sapiens) [compound 59]” as the substance, how does the “Peptide exchange” value read?
Answer: The value was “+++ (>50 = +++)”.

Question: With “60 (VVFPFPVNKR; listed as Homo sapiens) [compound 60]” as the substance, how does the “Peptide exchange” value read?
Answer: Its value is “+++ (>50 = +++)”.
